Values belong to the binder of their own block, whether it stands above or below them.
Experiments:
Experiment in all cases: co-IP with anti-FLAG, C-FLAG B3GNT2, mass spectrometry
[1] = biological target: T1, FLG (human, UniProt P20930 1-4061, limits assumed)
T1 construct: also called NP_002007.1
Procedure: (§1) Cells were plated in 10-cm cell culture dishes and grown to 60-80% confluency. For each condition, two biological replicates were harvested for co-IP. Cells were washed with PBS and 4 mL of lysis buffer (20 mM HEPES, 1% Triton X-100, 150 mM NaCl, 1 mM EDTA, and 10% glycerol) containing protease inhibitor cocktail was added. Cells were scraped and lysate was incubated at 4° C. under rotary agitation for 1 h. Lysate was centrifuged at 14,000×g for 10 min at 4° C. Supernatant was transferred to a new tube and an aliquot was taken as the input. […] For Western blots, 10 μg/mL Chicken Anti-FLAG (Aves labs ET-DY100) and IgY control (R&D Systems AB-101-C) antibodies were biotinylated (Thermo Fisher Scientific 90407) and added to the respective conditions. Lysates with antibodies were incubated at 4° C. under rotary agitation overnight. For each mL of lysate, 50 μL of Pierce Protein A/G Magnetic Beads (Mass spectrometry; Thermo Fisher Scientific 88803) or Pierce Streptavidin Magnetic Beads (Western blot; Thermo Fisher Scientific 88817) was washed twice with lysis buffer. Lysates with antibodies were added to the beads and incubated at 4° C. under rotary agitation for 4 h. Beads were washed with lysis buffer 3 times and resuspended in lysis buffer for storage.
(§2) Magnetic beads were resuspended in 100 mM Tris pH 7.8, reduced, alkylated and digested with trypsin at 37° ° C. overnight. This solution was subjected to solid phase extraction to concentrate the peptides and remove unwanted reagents followed by injection onto a Shimadzu HPLC with fraction collector. Eight fractions were collected and after concentration were injected on a Waters NanoAcquity HPLC equipped with a self-packed Aeris 3 μm C18 analytical column 0.075 mm by 20 cm, (Phenomenex). Peptides were eluted using standard reverse-phase gradients. The effluent from the column was analyzed using a Thermo Orbitrap Elite mass spectrometer (nanospray configuration) operated in a data dependent manner for 54 minutes. The resulting fragmentation spectra were correlated against the known database using Proteome Discover 1.4 (Thermo Fisher Scientific).

[2] = biological target: T2, PKM (human, UniProt P14618 2-531, limits assumed)
T2 construct: also called NP_001193725.1 (+3)
T2 sequence (P14618 2-531 limits assumed): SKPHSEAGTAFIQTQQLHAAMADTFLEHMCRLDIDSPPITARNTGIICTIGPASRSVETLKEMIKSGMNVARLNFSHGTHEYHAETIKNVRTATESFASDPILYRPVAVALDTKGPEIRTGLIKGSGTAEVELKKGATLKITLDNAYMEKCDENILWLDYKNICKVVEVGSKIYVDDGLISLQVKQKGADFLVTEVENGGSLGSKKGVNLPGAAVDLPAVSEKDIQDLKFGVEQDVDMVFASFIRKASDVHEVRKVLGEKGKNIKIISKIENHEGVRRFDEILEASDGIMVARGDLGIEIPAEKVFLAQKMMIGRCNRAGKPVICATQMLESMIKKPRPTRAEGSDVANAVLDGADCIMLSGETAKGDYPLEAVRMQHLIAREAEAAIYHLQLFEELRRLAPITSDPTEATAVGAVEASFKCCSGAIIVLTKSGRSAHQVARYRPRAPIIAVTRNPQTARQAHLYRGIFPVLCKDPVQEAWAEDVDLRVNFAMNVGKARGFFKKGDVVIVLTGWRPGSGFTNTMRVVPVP
Procedure: as §1, §2

[3] = biological target: T3, HNRNPM (human, UniProt P52272 2-730)
T3 construct: also called NP_005959.2 (+1)
T3 sequence (looked up): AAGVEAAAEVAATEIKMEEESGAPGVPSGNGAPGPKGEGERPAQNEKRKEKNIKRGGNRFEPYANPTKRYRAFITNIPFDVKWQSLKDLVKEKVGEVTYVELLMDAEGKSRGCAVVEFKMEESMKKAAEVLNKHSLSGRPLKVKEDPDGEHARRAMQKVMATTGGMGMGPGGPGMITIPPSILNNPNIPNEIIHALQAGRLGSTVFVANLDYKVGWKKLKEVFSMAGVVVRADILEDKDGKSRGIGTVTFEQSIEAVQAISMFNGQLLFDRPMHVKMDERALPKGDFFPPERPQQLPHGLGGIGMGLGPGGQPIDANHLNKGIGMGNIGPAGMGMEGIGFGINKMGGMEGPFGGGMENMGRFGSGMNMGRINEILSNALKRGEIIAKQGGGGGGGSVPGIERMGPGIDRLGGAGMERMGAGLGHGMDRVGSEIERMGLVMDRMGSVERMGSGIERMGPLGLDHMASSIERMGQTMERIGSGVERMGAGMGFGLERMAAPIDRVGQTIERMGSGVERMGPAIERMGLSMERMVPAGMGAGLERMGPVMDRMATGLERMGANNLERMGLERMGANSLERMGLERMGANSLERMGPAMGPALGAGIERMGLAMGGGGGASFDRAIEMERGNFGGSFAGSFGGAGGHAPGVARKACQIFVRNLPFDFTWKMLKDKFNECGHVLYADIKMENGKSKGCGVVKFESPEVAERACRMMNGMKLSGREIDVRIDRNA
Procedure: as §1, §2

[4] = biological target: T4, SBSN (human, UniProt Q6UWP8 26-590)
T4 construct: also called NP_00159506.1 (+2)
T4 sequence (looked up): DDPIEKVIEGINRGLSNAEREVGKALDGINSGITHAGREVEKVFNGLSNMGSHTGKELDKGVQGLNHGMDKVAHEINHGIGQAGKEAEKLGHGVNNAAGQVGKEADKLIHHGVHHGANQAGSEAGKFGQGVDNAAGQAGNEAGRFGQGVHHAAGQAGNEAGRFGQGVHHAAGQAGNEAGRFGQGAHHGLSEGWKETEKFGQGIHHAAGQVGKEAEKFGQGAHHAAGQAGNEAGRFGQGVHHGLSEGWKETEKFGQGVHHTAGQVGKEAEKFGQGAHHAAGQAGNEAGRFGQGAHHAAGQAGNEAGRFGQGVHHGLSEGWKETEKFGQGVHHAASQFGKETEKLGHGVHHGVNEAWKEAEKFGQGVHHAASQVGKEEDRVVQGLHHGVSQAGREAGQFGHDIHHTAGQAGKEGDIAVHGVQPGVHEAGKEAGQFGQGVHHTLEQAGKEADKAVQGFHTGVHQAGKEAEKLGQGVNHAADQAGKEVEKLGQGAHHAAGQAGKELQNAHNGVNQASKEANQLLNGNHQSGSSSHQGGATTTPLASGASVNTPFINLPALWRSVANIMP
Procedure: as §1, §2

[5] = biological target: T5, CLTC (human, UniProt Q00610 2-1675, limits assumed)
T5 construct: also called NP_001275582.1 (+2)
Procedure: as §1, §2

T1 sequence (P20930 whole entry): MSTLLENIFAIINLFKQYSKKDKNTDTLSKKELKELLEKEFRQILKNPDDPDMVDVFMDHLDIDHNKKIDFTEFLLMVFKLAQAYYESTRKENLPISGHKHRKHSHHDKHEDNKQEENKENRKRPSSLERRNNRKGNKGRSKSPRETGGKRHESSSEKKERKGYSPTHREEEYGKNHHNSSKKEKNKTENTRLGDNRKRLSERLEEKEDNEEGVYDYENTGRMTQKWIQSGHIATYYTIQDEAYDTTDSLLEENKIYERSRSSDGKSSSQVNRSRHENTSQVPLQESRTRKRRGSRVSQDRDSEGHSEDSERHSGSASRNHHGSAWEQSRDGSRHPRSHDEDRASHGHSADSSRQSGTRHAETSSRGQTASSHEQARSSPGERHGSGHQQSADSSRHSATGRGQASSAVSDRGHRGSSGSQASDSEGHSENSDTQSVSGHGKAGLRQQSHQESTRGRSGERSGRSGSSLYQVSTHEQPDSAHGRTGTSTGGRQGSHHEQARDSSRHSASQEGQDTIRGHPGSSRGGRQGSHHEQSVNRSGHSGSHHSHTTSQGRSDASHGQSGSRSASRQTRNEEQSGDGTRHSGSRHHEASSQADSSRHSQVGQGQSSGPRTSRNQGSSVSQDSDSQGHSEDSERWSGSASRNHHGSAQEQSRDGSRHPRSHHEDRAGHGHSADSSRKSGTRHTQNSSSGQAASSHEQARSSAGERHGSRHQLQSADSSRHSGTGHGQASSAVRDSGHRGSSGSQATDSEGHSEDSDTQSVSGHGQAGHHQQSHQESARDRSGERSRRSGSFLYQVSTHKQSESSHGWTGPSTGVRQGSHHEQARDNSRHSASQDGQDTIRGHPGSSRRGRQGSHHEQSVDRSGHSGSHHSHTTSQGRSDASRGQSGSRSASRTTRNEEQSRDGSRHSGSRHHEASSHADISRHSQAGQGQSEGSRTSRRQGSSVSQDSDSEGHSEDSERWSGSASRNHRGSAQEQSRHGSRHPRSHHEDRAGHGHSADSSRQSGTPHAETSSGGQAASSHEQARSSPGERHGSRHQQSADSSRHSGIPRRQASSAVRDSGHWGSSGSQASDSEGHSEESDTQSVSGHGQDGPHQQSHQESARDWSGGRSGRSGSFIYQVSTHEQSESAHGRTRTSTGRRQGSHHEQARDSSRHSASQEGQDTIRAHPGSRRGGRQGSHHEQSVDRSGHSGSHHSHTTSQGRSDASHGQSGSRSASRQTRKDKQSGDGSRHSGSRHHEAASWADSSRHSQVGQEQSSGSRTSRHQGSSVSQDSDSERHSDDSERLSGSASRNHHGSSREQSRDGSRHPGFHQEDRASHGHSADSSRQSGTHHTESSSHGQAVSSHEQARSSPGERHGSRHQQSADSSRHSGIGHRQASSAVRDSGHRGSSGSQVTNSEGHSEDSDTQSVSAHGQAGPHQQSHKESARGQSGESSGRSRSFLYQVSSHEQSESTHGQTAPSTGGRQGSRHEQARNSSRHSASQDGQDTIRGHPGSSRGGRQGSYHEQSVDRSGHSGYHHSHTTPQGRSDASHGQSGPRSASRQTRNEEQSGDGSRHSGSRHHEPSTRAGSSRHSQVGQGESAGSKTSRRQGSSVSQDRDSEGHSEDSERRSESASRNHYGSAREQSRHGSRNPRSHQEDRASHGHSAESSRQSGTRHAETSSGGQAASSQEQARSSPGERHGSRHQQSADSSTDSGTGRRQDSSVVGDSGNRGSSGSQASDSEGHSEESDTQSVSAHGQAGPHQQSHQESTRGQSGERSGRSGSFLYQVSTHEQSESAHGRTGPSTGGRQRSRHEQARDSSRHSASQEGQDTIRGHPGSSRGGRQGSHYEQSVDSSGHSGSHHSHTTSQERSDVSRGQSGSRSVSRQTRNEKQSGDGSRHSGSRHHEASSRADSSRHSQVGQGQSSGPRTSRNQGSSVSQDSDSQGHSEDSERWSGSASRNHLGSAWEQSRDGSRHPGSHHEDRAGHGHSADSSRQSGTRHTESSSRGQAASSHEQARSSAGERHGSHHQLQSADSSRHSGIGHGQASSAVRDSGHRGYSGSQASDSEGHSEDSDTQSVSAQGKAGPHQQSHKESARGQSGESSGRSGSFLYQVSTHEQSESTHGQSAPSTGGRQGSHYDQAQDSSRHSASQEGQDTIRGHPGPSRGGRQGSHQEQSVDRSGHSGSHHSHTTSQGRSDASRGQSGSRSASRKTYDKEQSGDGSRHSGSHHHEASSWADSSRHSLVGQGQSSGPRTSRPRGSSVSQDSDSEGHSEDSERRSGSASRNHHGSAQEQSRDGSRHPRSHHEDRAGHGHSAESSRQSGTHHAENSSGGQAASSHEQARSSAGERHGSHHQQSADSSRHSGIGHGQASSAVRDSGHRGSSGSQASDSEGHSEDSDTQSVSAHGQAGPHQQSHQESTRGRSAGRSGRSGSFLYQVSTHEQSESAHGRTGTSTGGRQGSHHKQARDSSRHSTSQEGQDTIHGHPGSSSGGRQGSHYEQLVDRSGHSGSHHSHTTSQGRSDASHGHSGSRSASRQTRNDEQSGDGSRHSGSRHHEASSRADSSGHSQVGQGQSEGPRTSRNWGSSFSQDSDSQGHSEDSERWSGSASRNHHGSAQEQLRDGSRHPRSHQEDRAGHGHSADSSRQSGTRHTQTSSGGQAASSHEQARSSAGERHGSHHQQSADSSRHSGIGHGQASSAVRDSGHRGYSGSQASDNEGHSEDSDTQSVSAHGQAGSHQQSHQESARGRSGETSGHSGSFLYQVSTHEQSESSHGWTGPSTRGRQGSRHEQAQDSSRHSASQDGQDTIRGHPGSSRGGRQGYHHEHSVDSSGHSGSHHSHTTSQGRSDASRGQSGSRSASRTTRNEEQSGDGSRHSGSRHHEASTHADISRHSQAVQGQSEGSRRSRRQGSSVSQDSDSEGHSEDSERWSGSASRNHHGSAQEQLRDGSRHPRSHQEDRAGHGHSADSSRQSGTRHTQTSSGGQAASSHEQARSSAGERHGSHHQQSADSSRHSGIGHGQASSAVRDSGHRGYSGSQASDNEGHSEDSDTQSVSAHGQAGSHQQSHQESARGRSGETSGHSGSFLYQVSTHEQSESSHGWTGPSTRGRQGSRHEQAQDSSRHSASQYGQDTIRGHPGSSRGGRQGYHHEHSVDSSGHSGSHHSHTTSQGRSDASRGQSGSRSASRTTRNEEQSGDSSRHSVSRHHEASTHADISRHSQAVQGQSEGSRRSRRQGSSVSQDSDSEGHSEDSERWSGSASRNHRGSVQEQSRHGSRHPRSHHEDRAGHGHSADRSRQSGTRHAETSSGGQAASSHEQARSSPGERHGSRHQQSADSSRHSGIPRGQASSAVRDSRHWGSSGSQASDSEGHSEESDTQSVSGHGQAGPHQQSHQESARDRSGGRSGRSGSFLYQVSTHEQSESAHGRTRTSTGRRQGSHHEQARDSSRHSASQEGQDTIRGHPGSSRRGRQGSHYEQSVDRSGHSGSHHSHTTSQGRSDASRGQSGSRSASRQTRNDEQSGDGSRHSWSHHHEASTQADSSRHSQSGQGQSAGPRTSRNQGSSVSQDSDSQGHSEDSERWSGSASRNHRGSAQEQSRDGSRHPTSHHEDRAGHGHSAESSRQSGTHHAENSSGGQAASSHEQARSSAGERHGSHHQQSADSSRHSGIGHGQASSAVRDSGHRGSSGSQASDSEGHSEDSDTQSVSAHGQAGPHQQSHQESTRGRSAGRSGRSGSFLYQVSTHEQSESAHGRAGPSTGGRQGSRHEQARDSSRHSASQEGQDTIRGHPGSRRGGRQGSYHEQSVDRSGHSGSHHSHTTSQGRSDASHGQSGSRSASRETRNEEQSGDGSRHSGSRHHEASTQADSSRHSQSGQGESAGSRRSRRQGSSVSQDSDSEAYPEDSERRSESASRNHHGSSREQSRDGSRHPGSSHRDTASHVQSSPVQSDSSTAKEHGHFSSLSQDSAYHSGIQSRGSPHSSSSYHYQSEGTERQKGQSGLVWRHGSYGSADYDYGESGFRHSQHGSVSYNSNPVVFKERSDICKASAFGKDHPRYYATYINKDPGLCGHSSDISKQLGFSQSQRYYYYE

co-IP mass spectrometry count [1]: 22 | co-IP mass spectrometry count [2]: 3 | co-IP mass spectrometry count [3]: 8
B1: C-terminal FLAG tagged B3GNT2 (enzyme, human, UniProt Q9NY97 1-397, looked up)
chain: MSVGRRRIKLLGILMMANVFIYFIMEVSKSSSQEKNGKGEVIIPKEKFWKISTPPEAYWNREQEKLNRQYNPILSMLTNQTGEAGRLSNISHLNYCEPDLRVTSVVTGFNNLPDRFKDFLLYLRCRNYSLLIDQPDKCAKKPFLLLAIKSLTPHFARRQAIRESWGQESNAGNQTVVRVFLLGQTPPEDNHPDLSDMLKFESEKHQDILMWNYRDTFFNLSLKEVLFLRWVSTSCPDTEFVFKGDDDVFVNTHHILNYLNSLSKTKAKDLFIGDVIHNAGPHRDKKLKYYIPEVVYSGLYPPYAGGGGFLYSGHLALRLYHITDQVHLYPIDDVYTGMCLQKLGLVPEKHKGFRTFDIEEKNKNNICSYVDLMLVHSRKPQEMIDIWSQLQSAHLKC
notes: FLAG-tagged ORF overexpressed in cells; pulled down from lysate with mouse anti-FLAG; also called C-FLAG B3GNT2; C-term flag; not shown: C-terminal FLAG tag

B2: C-terminal FLAG tagged B3GNT2 (enzyme, human, UniProt Q9NY97 1-397, looked up)
chain: B1 chain
notes: FLAG-tagged ORF overexpressed in A375 cells; pulled down from the lysate with mouse anti-FLAG; also called C-FLAG B3GNT2; C-term flag; not shown: C-terminal FLAG tag
co-IP/MS count, C-term flag [4]: 25 | co-IP/MS count, C-term flag [5]: 7

From patent US20240261333A1 (published 2024)
